{"source": "the nanobody polyreactivity screen of Harvey et al. (2022)"}
{"assay": "yeast display, Sf9 membrane polyspecificity reagent, FACS + sequencing; frameworks hold sequencing errors", "summary_of_the_method": "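A nanobody's polyreactivity label depends on the gate it was sorted from. Yeast display cells were stained with 10% biotinylated, detergent-solubilized Sf9 membrane reagent for 1 hour at 4 °C, enriched on streptavidin microbeads and sorted by FACS. The low and high (top ~1%) gates were set on anti-HA fluorescence for expression and streptavidin fluorescence for reagent binding.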"}
{"sequence": "QVQLVESGGGLVQAGGSLRLSCAASGFTFNYYAMGSYRQAPGKERELVAAITWRSGRTSYADSVKGRFTISRDNAKNTVYLQMNSLKPEDTAVYYCAKYPIYSGLTRYGYWGQGTQVTVSS", "polyreactivity (PSR sort gate)": "high polyreactivity"}
{"sequence": "QVQLVESGGGLVQAGGSLRLSCAASGRIFDGYAIGWYRQAPGKERDLVAAISWGGGSTYYADSVKGRFTISRDNAKNTVYLQMNSLKPDDTAVYYCAGDGIWAREMDYWGQGTQVTVSS", "polyreactivity (PSR sort gate)": "low polyreactivity"}
{"sequence": "QFQLVESGGGLVQAGGSLRLSCAASGSIFPPYVMGCYRQAPGKERELVATIDSGGSTYYADSVKGRFTISRDNAKNPVYLQINSLKPEDTAVYYCAARQVSVSVHQYGYWGQGTQVTVST", "polyreactivity (PSR sort gate)": "low polyreactivity"}
{"sequence": "QVQLVESGGGLVQAGGSLRLSCAASGSIFEGNAMGWYRQAPGKERELVAAISRRGGRTYYADSVKGRFTISRDNAKNTVYLQMNSLKPEDTAVYYCNALYFRDGRYQTYSDKFDYWGQGTQVTVSS", "polyreactivity (PSR sort gate)": "high polyreactivity"}
{"sequence": "QVQLVESGGGLVQAGGSLRLSCAASGSIFRPYAMGWYRQAPGKERELVAAISYRGGSTYYADSVKGRFTISRDNAKNTVYLQMNSLKPEDTAVYYCAADSREEGDYWGQGTQVTVSS", "polyreactivity (PSR sort gate)": "low polyreactivity"}
{"sequence": "QVQLVESVGGLVQAGGSLRLSCAASGRTFVVYAMGWYRQEPGKERELVAAIRVSDGSTYYADSEKGRFTISREISKNTVYLQMNSLNPEDTAVYYCNAESFRGFYYWGQGTQVTVSS", "polyreactivity (PSR sort gate)": "high polyreactivity"}
{"sequence": "QVQLVESGGGLVQAGGSLRLSCAASGSIFDFYDMGWYRPAPGKERELVAAISSGGGSTYYADSVKGRFTISRDNAKNTVYLQMNSLKPEDTAVYYCAADLKGNYYLGIARYVLYYWGQGTQVTVSS", "polyreactivity (PSR sort gate)": "low polyreactivity"}
{"sequence": "QVQLVESGGGLVQAGGSLRLSCAASGSIFYLYAMGWYRQAPGKERELVATISTGSGRTYYADSVKGRFTISRDNAKNTVYLQMNSLKPEDTAVYYCAASRTLRKHRYEYWGQGTEVTVSS", "polyreactivity (PSR sort gate)": "high polyreactivity"}
{"sequence": "PVQLVESGGGLVQAGGSLRLSCAASGRTVGYAMGWYRQSPWKERELVARINRTTGSTYYADSVKGRFTISRDNAKNTVYLQMKRLKPEDTAVYYCNAKSYYYSRWSRYYCTGYYYWGQGTQVTVSS", "polyreactivity (PSR sort gate)": "high polyreactivity"}
{"sequence": "QVQLVESGGGLVQAGGSLRLSCAASGRTISVYGMGWYRQAPGKERELVASIPWRGGTTYYADSVKGRFTISRDNAKNTVYLQMNSLKPEDTAVYYCAIEPFRFRYYYWGQGTQVTVSS", "polyreactivity (PSR sort gate)": "high polyreactivity"}
{"sequence": "QVQLVESGGGLVQAGGSLRLSCAASGRTLEDYVMGWYRQAPGKERELVAAISWSGVSTYYADSVKGRFTISRDNEKNTVYLQMNSLKPEDTAVYYCAKDSTADELTGFDYWGQGTQVNVSS", "polyreactivity (PSR sort gate)": "low polyreactivity"}
{"sequence": "QVQLVESGGGLVQAGGILRLSCAASGLIFKYNAMGWYRQAPGKERELVAAISTSGGSTYYADSVKGRFTISRDNAKNTVYLQMNSLKPEDTAVYYCNVAYIKTRLFRPYDYWGQGTQVTVSS", "polyreactivity (PSR sort gate)": "high polyreactivity"}
{"sequence": "QVQLVESGGGLVQAGGSLRLICAASGRIFGTNAKGWYRQAPGKERELVADITSGGSTNYADSVKGRFTISRDNAKNTVYLQMNSLKPEDTAVYYCAADVIGDLRWYRDEYWGQGTQVTVSS", "polyreactivity (PSR sort gate)": "low polyreactivity"}
{"sequence": "QVQLVESGGGLVQAGGSLRLSCAASGSIFAVYVMGWYRQAPGKDRELVAAIRRGGTTTYADSVKGRFTISRDNAKTTVYLQMNSLKPEDTAVYYCAADSYARYLYSYYSPYDYWGQGTQVTVSS", "polyreactivity (PSR sort gate)": "low polyreactivity"}
{"sequence": "QVQLVESGGGLVQAGGSLRFSCAASGNIIDLYAMGWYRQARGQERVLVAAITRSSSRTYYADSVKGRFTISRDIAKNTVYLQMNSLKPEDTAVYYCRANQVNRLDYWGQGTQVTVSS", "polyreactivity (PSR sort gate)": "high polyreactivity"}
{"sequence": "QVQLVESGGGLVQAGGSLRLSCAASGIIFGRYTMGWYRQAPGKERELVAAITSSGITYYADSVKGRFTISRDNAKNTVYLQMNSLKPEETAVYYCNADYSIPGYYWPYDYWGQGTQVTVSS", "polyreactivity (PSR sort gate)": "low polyreactivity"}
{"sequence": "QVQRVESGGGLVQAGGSLRLSCAACGSILPQYTMVWYRQAPGKERELVAAISKRGDRTYYADSVKGRFTISRDNAKNTVYLQMNSLKPEDTAVYYCAALGTGTGARSRYSVRFDYWGQGTQVTVSS", "polyreactivity (PSR sort gate)": "high polyreactivity"}
{"sequence": "QVQLVESGGGLVQAGGSLRLSCAASGSTFDAYAMGWYRQAPGKEWELVAAISTRGGRTDYADSVKGRFTISRDNAKNTVYLQMNSRKPEDTAVYYCTAVGARVNVRGTPAFDSWGQGTQVTVSS", "polyreactivity (PSR sort gate)": "high polyreactivity"}
{"sequence": "QVQLVESGGGLVQAGGRLRLSCAASGFIFRRYAIGWYRQAPGKERELVAAINRGGRTYYADSVKGRFTISRDNAKNTVYLQMNSLKPEDTAVYYCAVGSVSSDDWGQGTQVTVSS", "polyreactivity (PSR sort gate)": "high polyreactivity"}
{"sequence": "QVQLVESGGGLVQAGGSLRLTCAASGITFYYYAMGWYRQAPAKERELVAAISFRGGSTYYADSVKARFTISRDNPKNTFYLQMNSLNPEDTAVYYCASVTSPSWYTWVTYDYWGQGTQVTVSS", "polyreactivity (PSR sort gate)": "high polyreactivity"}
{"sequence": "QVQLVETGGCLVQAGCSLRLSCAASGIIFYEYAMGRYRQAPGKERELVAAIDWSGGSTYYADSVKGRFTISRDNAKNTVYLQMNRLKPEDSAVYYCAAQWAWVDYFGNWYASTYDYWGQGTQVTVSS", "polyreactivity (PSR sort gate)": "high polyreactivity"}
{"sequence": "QVQLVESGGGLVQAGGSLRLSCAASGSNFETNSMGGYRQAPGQERELVAVIWRGASTYYADSVKARFTISRDNAKNTVNLQMNSLKPDDTAVYYCNARPAYAGRYAYTRYYWGQGTQVTVSS", "polyreactivity (PSR sort gate)": "low polyreactivity"}
{"sequence": "QVQLVESGGGLVQAGGSLRLSCAASGSTLGRYALGWYRQAPGKERELVASITWSDDSTYYADSVKGRFTISRDNAKNTVYLQMNSLKPEDTAVYYCAAAGNLYTYRFYYWGQGTQVTVSS", "polyreactivity (PSR sort gate)": "low polyreactivity"}
{"sequence": "QVQLVESGGGLVQAGGSLRISCAASGITYKEYAMGWYRQAPGKERELVAAISISGGSTYYADSVKGRFTISRDNAKNTFYLQMNSLKPEDTAVYFCAADYAEYEYGDYYWGQGTQVTVSS", "polyreactivity (PSR sort gate)": "low polyreactivity"}
{"sequence": "QVQLVESGGGLVQAGGSLRLSCAASGGIFTKNAMGWYRQAPGKERELVAGISRTGGNTYYADSVKGRFTISRDNAKNTVYLQMNSLKPEDSAVYYCAAGRYYAVWQSISGFDSWGQGTQVTVSS", "polyreactivity (PSR sort gate)": "low polyreactivity"}
{"sequence": "QVQLVESGGGLVQAGGSLRLSCAASGTIFQQYAMGWYRQAPGKERELVAAISYSGGTTYYADSVKGRFTISRDNAKNTDYLEMNSLKPEDTAVYYCAAYYPSGSYDYYWGQGTQVTVSS", "polyreactivity (PSR sort gate)": "low polyreactivity"}
{"sequence": "QVQLVESGGGLVQAGGSLRLSCAASGITFVPYAMGWYRQAPGKEREFVARITWSGGGTYYADSVKGRFTISRDNAKNTVYLQMNSLKPEDTAVYYSNKASLPTYYYVDGSDSWGQGTQVTVSS", "polyreactivity (PSR sort gate)": "low polyreactivity"}
{"sequence": "QVQLVESGGGLVQAGGSLRLSCAASGSTFSENAMGWSRQAPGKERELVAAISWGGGSTYYADSVKGRFTISRDNAKNTVYLQMNSLKPEDTAVYYCNADVFDDYGYFESDYWGQGTQVTVSS", "polyreactivity (PSR sort gate)": "low polyreactivity"}
{"sequence": "QVQLVESGGGLVQAGGSLRLSCAASGFILPWYVMGWYRQAPGKERELVAAISGTGGSTYYADSVKGRFTISRDNAKNTVYLQMNSLKPEDTAVYYCAAGAFYAGYYWEFYYWGQGTQVTVSS", "polyreactivity (PSR sort gate)": "high polyreactivity"}
{"sequence": "QVQLVESGGGLVQEGGSLRLSCAASGFILVNYAMGWYRQAPGKEREFVAAISGSGTRTYYADSVKGRFTISRDNAKNTVYLQMNSLKPEDTAVYYCAARVGYRKLYYYWGQGTQVTVSS", "polyreactivity (PSR sort gate)": "high polyreactivity"}
{"sequence": "QVQLVESGGGLVQAGGSLRLSCAASGSTFVTYTMGWYRQAPGKERELVAAISWSGDTTYADSVKGRFTISRDNAKNTVYLQMNSLKPVDTAVYYCAADDDWSGVEFDYLGQGTQVTVSS", "polyreactivity (PSR sort gate)": "low polyreactivity"}
